Data taken from US20030138946A1.

T1: soluble H-2 K^b (K^bsol): heterodimer of truncated K^b heavy chain and murine β-2 microglobulin, purified from Drosophila cells (murine), P01901
T1 chain 1: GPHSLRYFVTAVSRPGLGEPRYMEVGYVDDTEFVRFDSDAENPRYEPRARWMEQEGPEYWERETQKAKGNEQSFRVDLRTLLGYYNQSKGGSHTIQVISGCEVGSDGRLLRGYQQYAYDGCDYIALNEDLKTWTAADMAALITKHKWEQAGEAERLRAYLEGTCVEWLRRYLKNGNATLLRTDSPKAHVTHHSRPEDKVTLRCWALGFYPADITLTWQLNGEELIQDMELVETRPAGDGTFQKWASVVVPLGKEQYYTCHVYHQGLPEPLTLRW
T1 chain 2: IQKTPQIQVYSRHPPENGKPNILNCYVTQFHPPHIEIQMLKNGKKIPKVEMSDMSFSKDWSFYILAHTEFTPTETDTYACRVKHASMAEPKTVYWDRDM


Target: T1, soluble H-2 K^b (K^bsol): heterodimer …

| Binder | Kd [nM] |
| --- | --- |
| SIINFEKLTE (modifications not checked) [OVA-10C] | 14 |
| LESIINFEKL (modifications not checked) [OVA-10N] | 280 |
| SIINFEKL (modifications not checked) [OVA-8 (ovalbumin 257-264)] | 4.1 |
| SIINFEKLT (modifications not checked) [OVA-9C] | 11 |
